From patent US20220002397A1 (Hoffmann-La Roche, published 2022)
Positions count from the first letter of the chain named. Numbers in names are those of the source. Blank lines part the entries; values can stand above or below the binder they belong to.

How the values were obtained:
[1] = biological target: T1, VEGF-121-His (inhouse production) (human, UniProt P15692 207-395); test: inhibition ELISA: antibody pre-incubated with 0.34 nM VEGF-121-His, binding to coated biotinylated VEGF-R1 detected
T1 construct: also called hVEGF-A121; VEGF-A121; not shown: His tag
T1 sequence: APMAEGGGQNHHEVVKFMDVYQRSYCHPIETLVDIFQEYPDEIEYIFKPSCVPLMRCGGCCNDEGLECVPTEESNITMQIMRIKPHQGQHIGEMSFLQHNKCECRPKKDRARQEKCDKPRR
Protocol: 384 well streptavidin plates (Nunc/Microcoat #11974998001) were coated with 0.25 μg/mlbiotinylated VEGF-R1 or […] biotinylated VEGF-R2 (inhouse production, each 25 μl/well in DPBS (1×) (PAN, #PO4-36500)). Plates were incubated for 1 h at room temperature. […] This pre-incubation step was carried out in 384 well PP plates (Weidmann medical technology, #23490-101) in 1×OSEP buffer (bidest water, 10×, Roche, #11 666 789 001+0.5% Bovine Serum Albumin Fraction V, fatty acid free, Roche, #10 735 086 001+0.05% Tween 20). Plates were incubated for 1 h at room temperature. After washing VEGF-R1/VEGF-R2 coated streptavidin plates 3 times with 90 μl/well PBST-buffer (bidest water, 10×PBS Roche #11666789001+0.1% Tween 20), 25 μl of samples from the VEGF-antibody pre-incubation plate were transferred to coated strepavidin plates which were subsequently incubated for 1 h at room temperature. After washing 3 times with 90 μl/well PBST-buffer, 25 μl/well detection antibody (anti His POD, Bethyl, #A190-114P, 1:12000) in 1×OSEP was added. After incubation for 1 h at room temperature plates were washed 3 times with 90 μl PBST-buffer. 25 μl TMB (Roche, #11 835 033 001) was added to all wells simultaneously. After 10 min incubation at room temperature, signals were detected at 370 nm/492 nm on a Tecan Safire 2 Reader. […]

[2] = biological target: T1, VEGF-121-His (inhouse production); test: SPR, hVEGF-A121 captured by anti-His antibody, Fab as analyte, 37 C
Protocol: (§1) An anti-His capturing antibody (GE Healthcare 28995056) was immobilized to a Series S Sensor Chip C1 (GE Healthcare 29104990) using standard amine coupling chemistry resulting in a surface densitiy of 500-1000 resonance units (RU). As running and dilution buffer, HBS-P+(10 mM HEPES, 150 mM NaCl pH 7.4, 0.05% Surfactant P20) was used, the measurement temperature was set to 25° C. and 37° C., respectively. hVEGF-A121 was captured to the surface with resulting capture levels ranging from 5 to 35 RU. Dilution series of anti-VEGF antibodies (0.37-30 nM) were injected for 120 s, dissociation was monitored for at least 600 s at a flow rate of 30 μl/min. The surface was regenerated by injecting 10 mM Glycine pH 1.5 for 60 s. Bulk refractive index differences were corrected by subtracting blank injections and by subtracting the response obtained from the control flow cell without captured hVEGF-A121. Rate constants were calculated using the Langmuir 1:1 binding model within the Biacore Evaluation software.
(§2) The affinity of the antibodies was determined by SPR using the same methods as described in Example 1.

[3] = biological target: T1, VEGF-121-His (inhouse production); test: SPR (Biacore), hVEGF-A121 captured by anti-His antibody on C1 chip, Fab as analyte, 1:1 Langmuir model, 25 C; 25 C; Example 1
Protocol: VEGF-binding of antibody VEGF-0089 Fab fragment was assessed by surface plasmon resonance (SPR) as described below.
as §1

[4] = biological target: T1, VEGF-121-His (inhouse production); test: SPR, hVEGF-A121 captured by anti-His antibody, Fab as analyte, 25 C; 25 C; Table 3 (later example)
Protocol: as §1, §2

[5] = biological target: T1, VEGF-121-His (inhouse production); test: SPR, hVEGF-A121 captured by anti-His antibody, Fab as analyte, 25 C
Protocol: as §1, §2

binding result [1]: binds
B1: VEGF-P1AD8674 Fab (Fab, V domains shown)
VH: EVQLVESGGGLVQPGGSLRLSCAASGFTFTNYAMTWVRQAPGKGLEWVSSIGNGGGIYTYYADSVKGRFTISRNNAENTLYLQMNSLRAEDTAVYYCAKGDNLFDSWGPGTLVTVSS
VL: DIQMTQSPASLSASVGDRVTITCRASQSIYSSLNWYQQKPGKAPKLLIYASTLQSGVPSRFSGSASGTDFTLTISSLQPEDVATYYCQQYQNFPRTFGQGTKLEIKR
notes: Variant of VEGF-0089 with D72N, S74A, K75E (Kabat) in H-FR3

Kd [2]: 110 pM
Kd [3]: 134 pM
Kd [4]: 143 pM
B2: VEGF-0089 Fab fragment (Fab, V domains shown)
VH: B1 VH with N74D, A76S, E77K
VL: B1 VL
notes: Parent antibody; also called antibody VEGF-0089

Kd [2]: 85 pM
Kd [5]: 74 pM
B3: VEGF-0112 Fab (Fab, V domains shown)
VH: B1 VH with N53S, N74D, A76S, E77K
VL: B1 VL
notes: Variant of VEGF-0089 with N52aS (Kabat) in H-CDR2
